Laboratory results published in paper PMC4552428, “Distinct Actin and Lipid Binding Sites in Ysc84 Are Required during Early Stages of Yeast Endocytosis” (PLoS ONE, 2015).

Target: Rabbit skeletal muscle actin (rabbit, UniProt P68135 1-377)
Assay: MST; microscale thermophoresis of Ysc84-Nt with monomeric (G-) actin; conditions not shown (S1 File)
Details: both partners purified

B1: 6xHis tagged Ysc84-Nt (wild type, N-terminal YAB domain) (domain or fragment)
chain: MGINNPIPRSLKSETKKAAKVLRSFVKPNQVFGADQVIPPYVLKRAKGLAIITVLKAGFLFSGRAGSGVIVARLKDGTWSAPSAIAMAGAGAGGMVGVELTDFVFILNSEEAVRSFSEFGTITLGGNVSVSAGPLGRSAEAAASASTGGVSAVFAYSKSKGLFAGVSVEGSAILERREANRKFYGDNCTSKMILSGRVKVPPAADPLLRILESRAFNF
notes: The His tag was detected on this protein on PIP strips; no cleavage is described; also called Ysc84-Nt WT; wild-type Ysc84-Nt; source: E. coli BL21 DE3, purified (HisTrap HP nickel column)
- Kd: 850 nM
